Test results as given in PMC5962637, “Simultaneous cell disruption and semi-quantitative activity assays for high-throughput screening of thermostable L-asparaginases” (Scientific Reports, 2018).

Substrate: NC(=O)C[C@H](N)C(=O)O
Test: ammonia release with Nessler's reagent, A450; Michaelis-Menten plot
Format: biochemical, Pyrococcus yayanosii
Details: 50 mM Tris-HCl pH 8.0, 95 °C, substrate range 0.05-2.0 mM

B1: P. yayanosii CH1 L-asparaginase (pyasnase) (Pyrococcus yayanosii CH1) (protein)
chain: MRLLILGMGGTIASVPSEEGYESSLSVEEILRLAGLELKWEVEARDLLNIDSTLIQPEDWVLLAETVFEAFEEFDGVVITHGTDTLAYTASMLSFMVRNPPVPIVLTGAMRPITEPGSDAPRNLWTALRFAIEGVPGVYVAFMDKVMLGVRVSKVRAVGLNAFQSINYPDIAYVKGNRIHWNAKPPKLEGEPVLDTRHEPRVLVLRLVPGMEGDVLEAALELGYRGIVLEGYGVGGIPYRGRDLLDVVRRVATEIPVVMTTQTLYDGVDLTKYKVGRKALEVGVIPAGDMTKEATITKLMWILGHTRDVGEVRRLMLTNMVGEIGKSA
notes: C-terminal His-tag (in primer R1); codon-optimised synthetic gene, pMA5, Bacillus subtilis 168; homodimer (homology model)
Q: B1 was tested. Which Km did it give?
A: Its Km is 6.5 mM.
